{"source": "paper PMC11321707", "key": {"[1]": {"experiment": "1H-15N HSQC NMR (signal loss and chemical shift perturbation upon self-assembly); R5 in phosphate-buffered solution, 50 mM Pi, pH 6.5, 25 °C; compared with R5 without Pi", "details": "other: 1H-15N HSQC NMR (signal loss and chemical shift perturbation upon self-assembly)"}, "[2]": {"experiment": "1H-15N HSQC NMR (signal loss and chemical shift perturbation upon self-assembly); R5 in phosphate-buffered solution, 11.8 mM Pi, pH 6.5, 25 °C; compared with R5 without Pi", "details": "other: 1H-15N HSQC NMR (signal loss and chemical shift perturbation upon self-assembly)"}, "[3]": {"experiment": "diffusion-ordered NMR spectroscopy (DOSY); R5 in the presence of Pi, 25 °C; hydrodynamic radius by Stokes-Einstein, spherical model; monomer to trimer", "details": "other: diffusion-ordered NMR spectroscopy (DOSY)"}}, "data": [{"substance": "R5 peptide", "values": [{"measurement": "percent of the peptides outside the large self-assemblies, with Pi", "setting": "[1]", "value": "≈0.7 and ≈0.01% of the peptides remained outside the large self‐assemblies"}, {"measurement": "percent of the peptides outside the large self-assemblies, with Pi", "setting": "[2]", "value": "≈0.7 and ≈0.01% of the peptides remained outside the large self‐assemblies"}, {"measurement": "N with Pi", "setting": "[3]", "value": "an aggregate volume that fits three R5 units"}]}]}
